Molecular target: KIR3DL1-Fc (UniProt P43629)
Assay: SPR; Biacore T200; KIR3DL1-Fc coupled to a series S Protein A chip at ~1000 RU; soluble monomers injected at 0-193 uM (wild type) or 0-234 uM (V97S); contact 300 s, dissociation 700 s; 25 C; HBS-EP+ buffer; 1:1 binding model

UniProt P43629, sequence (P43629 22-320): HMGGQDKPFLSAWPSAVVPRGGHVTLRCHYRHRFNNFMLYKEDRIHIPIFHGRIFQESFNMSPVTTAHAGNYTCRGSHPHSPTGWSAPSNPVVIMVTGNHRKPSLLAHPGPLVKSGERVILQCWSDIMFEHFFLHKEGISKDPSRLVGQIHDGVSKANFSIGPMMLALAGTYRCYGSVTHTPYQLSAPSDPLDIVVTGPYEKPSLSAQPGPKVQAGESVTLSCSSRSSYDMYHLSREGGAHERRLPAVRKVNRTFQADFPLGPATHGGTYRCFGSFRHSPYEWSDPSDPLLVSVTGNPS

soluble HLA-B*5701 V97S mutant monomer in complex with the TW10 peptide (from UniProt P61769 21-119) (peptide-MHC)
Kd: 185 µM

From publication PMC11329236
